This data set is described as follows: soluble on expression in E. coli; label from the status in PepcDB or PDB records.
“MVSNPVHGLPFLPGTSFKDSTKTAFHRSQTLSYRNGYAIVRRPTVGIGGDRLQFNQLSQAELDELASKAPVLTYGQPKQAPPADFIPAHVAFDKKVLKFDAYFQEDVPMSTEEQYRIRQVNIYYYLEDDSMSVIEPVVENSGILQGKLIKRQRLAKNDRGDHYHWKDLNRGINITIYGKTFRVVDCDQFTQVFLESQGIELNPPEKMALDPYTELRKQPLRKYVTPSDFDQLKQFLTFDKQVLRFYAIWDDTDSMYGECRTYIIHYYLMDDTVEIREVHERNDGIDPFPLLMNRQRVPKVLVENAKNFPQCVLEISDQEVLEWYTAKDFIVGKSLTILGRTFFIYDCDPFTRRYYKEKFGITDLPRIDVSKREPPPVKQELPPYNGFGLVEDSAQNCFALIPKAPKKDVIKMLVNDNKVLRYLAVLESPIPEDKDRRFVFSYFLATDMISIFEPPVRNSGIIGGKYLGRTKVVKPYSTVDNPVYYGPSDFFIGAVIEVFGHRFIILDTDEYVLKYMESNAAQYSPEALASIQNHVRKREAPAPEAESKQTEKDPGVQELEALIDTIQKQLKDHSCKDNIREAFQIYDKEASGYVDRDMFFKICESLNVPVDDSLVKELLRMCSHGEGKINYYNFVRAFSN”: the “soluble on expression in E. coli” value is listed as “soluble”. For “MSLKVIICGAGQVGYGIAEQLSREDNEVSVIDTAAPLITAITETLDVRGYVGHGAHPDMLAKAGADQADMIIAVTLHDEINIVACEVAHALFSVPTKIARIRDQSYMKPEYADLFSRENMSIDVTISPEVEVGKMVLRRIAFPGATDVVRFAEDTIYMLAIECMEDCPVINTPLQQLSSLFPDLIATVVGVYRDGILKVAHSSEQLRVGDLAYVICQRQHARRTLSLFGHEEQEGHHHHHH”, the “soluble on expression in E. coli” value was “not soluble”. The entry for “MAHHHHHHMRGTTKPMLFLCSTAVRLNFFPLGLSAGPLNSHILLPRNNFDGRTTHGMKKIQGQSKDPQMVMSRDELKLRCEYCRFEWIHDTLCVRCPAQPSHDQREMWLHSTWMWGKQQPYKYYKYMPAVRNPRTGMPMAREDARGMNNERRGQGLTTRTLNLEKERRGISRDVSRIGQYNTRWKTRFPFPT” is “not soluble”; for “GSAGERIYNISGNGSPLADSKEIFLTVPVGGGESLRLLASDLQRHSIAQLDPEALGNIKKLSNRLAQICSSIRTHK” it is “soluble”. The entry for “MTCVGDIMLAGSATPTLSRSGYDYPFAKTAQELRRGDIAMGNLEAPLTERGTEYRDKTYRFRTNPIAAAALKRAGFSVLTLANNHMMDYGNEGLQDTLATLSRHGIAHTGAGASLAEARREAVVSVRGKRIAFLAYSLTFPSEFYAGPNRPGTAPGYAPHVREDIRRAKAEADYVVVSFHWGAERAEFPKQYQTETARLAIDAGADAIIGHHPHVLQGIEFYRGKPILYSLGNFAFGSRSTAADRSVMARLTLSDEETSVELVPLNVLHRETRYQPGILAGRKGAEVIERLNRLSQPFGTVISGSAGRFRARTSGADQRIATRLEHHHHHH” is “not soluble”; for “MKQDGEEGTEEDTEEKCTICLSILEEGEDVRRLPCMHLFHQVCVDQWLITNKKCPICRVDIEAQLPSES” it is “soluble”; for “MHHHHHHAIGYVWNTLYGWVDTGTGSLAAANLTARMQPISHHLAHPDTKRRFHELVCASGQIEHLTPIAAVAATDADILRAHSAAHLENMKRVSNLPTGGDTGDGITMMGNGGLEIARLSAGGAVELTRRVATGELSAGYALVNPPGHHAPHNAAMGFCIFNNTSVAAGYARAVLGMERVAILDWDVHHGNGTQDIWWNDPSVLTISLHQHLCFPPDSGYSTERGAGNGHGYNINVPLPPGSGNAAYLHAMDQVVLPALRAYRPQLIIVGSGFDASMLDPLARMMVTADGFRQMARRTIDCAADICDGRIVFVQEGGYSPHYLPFCGLAVIEELTGVRSLPDPYHEFLAGMGGNTLLDAERAAIEEIVPLLADIR” it is “soluble”.

Turning to “ILTENTPYFEQLSVPQRSVGRIIGRGGETIRSICKASGAKITCDKESEGTLLLSRLIKISGTQKEVAAAKHLILEKVSEDEELRKRIAHSA”, the “soluble on expression in E. coli” value was “soluble”. For “MGHHHHHHSHALLEKEILEKVSSPFIVSLAYAFESKTHLCLVMSLMNGGDLKFHIYNVGTRGLDMSRVIFYSAQIACGMLHLHELGIVYRDMKPENVLLDDLGNCRLSDLGLAVEMKGGKPITQRAGTNGYMAPEILMEKVSYSYPVDWFAMGCSIYEMVAGRTPFKDYKEKVSKEDLKQRTLQDEVKFQHDNFTEEAKDICRLFLAKKPEQRLGSR”, the “soluble on expression in E. coli” value is reported as “not soluble”. To “MSLTDDLKVCNQTGVGEAINQIYKDDGRRCEGYESRDKKCLCISDNNTSLYAILSGHNGVTVAENALQEMAAELLLGQLNVCNTDEAVKELIRQSFMSVEKGYFDSINPHVATKTAIQLHLSADGMNQYEISQQFENVLQKLDSLNNALSVGSSAVLALIHRSHLYLGNIGNCRALLCKTDEHDTLTVTQLSVDHNLLNAEEAARLFRLGLMAQNFEGVPLYSTRCIGNYLGKAGYKDCNFLSSATAEPVIFEPEIVGGIQITPACRFLVLMSSGLCRALHEIFPGDASTGNRELVRMISEEFQNQSTLGGVAQSVVHRIVQAHHDTYMQLVEEHRSVTFNSRDDVTLLIRNFNYAEGHHHHHH” belongs “not soluble”; to “TEPTIHKGLAGVTADVTAISKVNSDTNSLLYRGYPVQELAAKCSFEQVAYLLWNSELPNDSELKAFVNFERSHRKLDENVKGAIDLLSTACHPMDVARTAVSVLGANHARAQDSSPEANLEKAMSLLATFPSVVAYDQRRRRGEELIEPREDLDYSANFLWMTFGEEAAPEVVEAFNVSMILYAEHSFNASTFTARVITSTLADLHSAVTGAIGALKGPLHGGANEAVMHTFEEIGIRKDESLDEAATRSKAWMVDALAQKKKVMGFGHRVYKNGDSRVPTMKSALDAMIKHYDRPEMLGLYNGLEAAMEEAKQIKPNLDYPAGPTYNLMGFDTEMFTPLFIAARITGWTAHIMEQVADNALIRPLSEYNGPEQRQVP”, “soluble”; to “MGSDKIHHHHHHMHSPRELALLYRQGKNITQLMRDERGLIHNSNEIIEISYDLQAGSYIESMGEAWMAEHNAEYCQQLAKVILSLCNPDSILEAGIGEATTLADLLPHLSKKISSYGFDISWSRVAYGKQWLQQQGISNTVLCTGNLCHIPFADNAVELVYTSHSLEPNGGNEAAILKELYRVTSKFLVLLEPGYELANKDAKHRMEQHGYCRNIKSIAQSLGYRILLHEFFPSSVNPLNPTVITIIEKPPSFEPAKHILACPKYKTPLENIENMLFSPESLMVYPIVGGIPCLGINNGLVASKFRELISKG”, “not soluble”. To “ANGLFYSLRGNFSFARNKIIENDEPKPKYEYQDARGRRIDQTFGLVALGFFKDQDDIKNSPKQTFQSTVRPGDIKYKDINGDGVVDEYDKVAIGDPRTPEIMFGFGGTVAYKNFDVSLFFTGAAKTSFFLEGATVYPFLNGEGTWNVLREVYDNRWTSETAATAKYPIVLNANSYNNYQTSTMYMRNGSYLRLKSAEIGYTFKGRLIDKMFMDNIRLFCNGQNLLTLDYIKIVDPESNNGVGNYPMQRTINFGFQINFK” belongs “not soluble”. Consider “MGSDKIHHHHHHMTEATYNFAYLDEQTKRMIRRAILKGIAIPGYQVPFASREMPMPYGWGTGGVQVTASILGPDDTLKVIDQGSDDTTNAISIRKFFAKTAGVATTTATPDASVIQTRHRIPETPLHEGQVLVYQVPIPEPLRYLEPRETETRRMHALAEYGLMHVKLYEDIAKFGHIATAYAYPVKVAGRYVMDPSPTPKFDNPKMDNCPALQLFGAGREKRIYAIPPYTQVVSLDFEDHPFTRYRQDGCCALCGADDSYLDEIVTDNAGTRMFVCSDTDYCEGRRAQGHTGSETAPMESAHA”, for which the “soluble on expression in E. coli” value is reported as “not soluble”. “PPAVSDIRVTRSSPSSLSLAWAVPRAPSGAVLDYEVKYHEKGAEGPSSVRFLKTSENRAELRGLKRGASYLVQVRARSEAGYGPFGQEHHSQTQLD”: the “soluble on expression in E. coli” value is “soluble”. To “MSLNALKREDAANKKLGVLIYENVQPMDVIGPWEVFATWKTILDASIDMFLVAESSNEVCCANQISLKPHCEFNNSPQFDYLLVPGGAGRREQVNNPRLISFLKKQAQNTDYLLSVCTGAFLLHAAGLLTHHEATTYWRAMPELKSFEDVQLVEKRIVKSGKVWTTGGISSGIDLAFEFISTIAGNDVAGKIQLLFEYFPECKLYSQPAMVSELPSYYATKKDEAVLEMNLPDYIKEYFKKSEGHHHHHH” belongs “soluble”; to “MGSDKIHHHHHHMPASKIYLLDYGWLGGDIGWFLPGQLGGAMTNSERNPRRDWVEIPITGALIDHPDARILFDTGIAPDAMKTHERGLMEAFPITKMDDQNHIENQLKLIGLKPEDIDFVVISHLHLDHIGQAAVFKDSHVPIIVQKKELESALSLIWQGKSGAYDYSDLLPLKGAAWMPLDDPVFEIVDGVYAEFTGGHTAGHQVLTVKTEKGSMYTLTGDFLHLPKEYDVEAKGWLLSNATEWNSYIKKMKIREKARKQKLIISHDPGIWDKYPHAPKFVE”, “not soluble”. As for “MSSSTKTLSQTYGPRPQSFSLDEAGERYYIGSEIGAYLRLHRGTLYKKYPLLWRKVATSDDKDKLKQIAMSNAFLHTNIMLLRAHEVDELLDGSEEKYRAAGAAPSTPRTEGASRTVAKTPATGWAGQQVTSGSHHLESVPCSCPIAHSRGRMKHRELVYSAEDLEMSKRVMKNAEEGEDLVPIRLDMELDGIKLRDTFTFNKNEKMITPEMIAEIMCEDLDLPLAVFQPAITAAINQQLEASTEAPPLDVNICDQRAVLKLNINVGNQSLVDQFEWDMSDPNNSPEEFSRNICKELGLGGEFMSGIAYSIRGQLQWNQRTYAFSESPLATVDCPFRTSSEVESWGPFLETLTDAEIEKKMRDQDRNTRRMRRLVGGGFNY”, the “soluble on expression in E. coli” value was “not soluble”.

For the sequence “MGSDKIHHHHHHMKFTINRTLFIEKLEKASATVDVKNPMPALQGVLLDCNSKGMILMGSDGTETVTLVTRFNVNSGDCTEPGKVLFAAAPVLKTIKKFKSEFIGLEHKNNELKIVESKKKQFSFCTMDHEEYPEIKIEAGEDWISLSQEQFVSMANGTLHAIPAMDTRKILTGVNLKSVDDKFFSIATDAHRLARLHFDCTKITIAKDGEVVLPIKSLKTALKLFNRETNLQLKLISDTQLLIRGESIIYQSRLLAGTYPDTARMVPDEFKSEIQLSREEFKNTLEQLSAFSSLIVLTSEGKESIHLKPQNSQVGTASVEIPCNQVEAFTLACNVEYLLQALQTITSETIAIKMISNQRPIVVVGAEDTTHSNLQLILPVRV”, the “soluble on expression in E. coli” value is given as “not soluble”. The entry for “MGSDKIHHHHHHMSPRPKQLSLELGSPPPSTFDNFVVASNREAVQRLHDLPSAVAQERAIDRLFYLWGENGCGRTHLLHAVCEATPQTGINCRYLSPHHPLSDFLFDPSCQLYTVDDVELLDEARQIAVFSLYNEVRAHVRTALVVAGGMAPRAMPVREDLRTRLGWGLVYQVQPLSDEDKMSAVLQAARERGLQLSPEITHWLVTRHYRDMPSLMALLDALDTYSLERKRPVTLPLLREMFAEFRE” is “not soluble”.

With “MKRDKEVSINKKDPFSVLIMGVDERDGDKGRADTLIYMTVNPKTNTTDMVSIPRDTYTKIIGKGTMDKINHSYAFGGTQMTVDTVENFLDVPVDYFVKVNMESFRDVVDTLGGITVNSTFAFSYDGYSFGKGEITLNGKEALAYTRMRKEDPRGDFGRQDRQRQVIQGIINKGANISSITKFGDMFKVVENNVKTNLTFDNMWDIQSDYKGARKHIKQHELKGTGTKINGIYYYQADESALSDITKELKESLEKLEHHHHHH”, the “soluble on expression in E. coli” value is “soluble”.

Consider “MASLATSISGSFRILVKSSSTRNGFPVISDQNPSFVLFANKRRHISRTAIFHRSAISGSSQGEKISPLASGVSSGLYSAQTFDLTPQNVDLVLEDVRPFLISDGGNVDVVSVEDGVVSLKLQGACTSCPSSSTTMTMGIERVLKEKFGDALKDIRQVFDEEVKQITVEVSEASF”, for which the “soluble on expression in E. coli” value is given as “not soluble”.

The values are drawn from the DeepSol protein solubility set.
